pIC50, pKd: −log10 of the molar value.
Tests used:
[1] = target: T1, Angiopoietin-2 (Ang2) (Homo sapiens) (UniProt O15123); assay: flow; conditions: 2'-F all nucleotides
T1 sequence: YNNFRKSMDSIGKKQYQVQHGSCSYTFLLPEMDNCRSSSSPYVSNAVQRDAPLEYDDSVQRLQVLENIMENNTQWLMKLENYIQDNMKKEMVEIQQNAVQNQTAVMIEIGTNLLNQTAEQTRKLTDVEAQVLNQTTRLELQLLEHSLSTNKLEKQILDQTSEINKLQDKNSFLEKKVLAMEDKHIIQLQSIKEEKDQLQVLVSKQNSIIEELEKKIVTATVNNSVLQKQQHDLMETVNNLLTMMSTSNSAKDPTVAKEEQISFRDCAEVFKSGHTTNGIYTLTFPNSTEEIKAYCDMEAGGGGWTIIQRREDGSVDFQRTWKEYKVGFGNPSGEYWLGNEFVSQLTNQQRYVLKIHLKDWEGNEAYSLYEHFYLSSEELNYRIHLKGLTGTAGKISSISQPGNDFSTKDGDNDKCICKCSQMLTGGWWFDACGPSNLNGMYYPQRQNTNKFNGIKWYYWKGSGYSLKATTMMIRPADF

[2] = target: T2, VEGF-121 (VEGFA isoform 121) (Homo sapiens) (UniProt P15692); assay: flow; conditions: 2'-F all nucleotides
T2 sequence: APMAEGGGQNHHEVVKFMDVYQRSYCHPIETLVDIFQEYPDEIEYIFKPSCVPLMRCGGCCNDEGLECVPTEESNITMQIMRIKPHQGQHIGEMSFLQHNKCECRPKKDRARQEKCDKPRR

[3] = system: T3, VEGF (isoform not given) (Homo sapiens), P15692-9; assay: competition; conditions: 2'-F all positions; blocks VEGF-VEGFR2; isoform not stated
T3 sequence: T2 sequence

[4] = 1 hexaethylene glycol linker between aptamers [2'-F at all nucleotides 1-86, 1 hexaethylene glycol linker (H) between 38 and 39 left out]
[5] = 5 hexaethylene glycol linkers between aptamers [2'-F at all nucleotides 1-86, 5 hexaethylene glycol linkers (HHHHH) between 38 and 39 left out]
[6] = 3 hexaethylene glycol linkers between aptamers [2'-F at all nucleotides 1-86, 3 hexaethylene glycol linkers (HHH) between 38 and 39 left out]
[7] = 4 hexaethylene glycol linkers between aptamers [2'-F at all nucleotides 1-86, 4 hexaethylene glycol linkers (HHHH) between 38 and 39 left out]
[8] = 6 hexaethylene glycol linkers between aptamers [2'-F at all nucleotides 1-86, 6 hexaethylene glycol linkers (HHHHHH) between 38 and 39 left out]
[9] = 2 hexaethylene glycol linkers between aptamers [2'-F at all nucleotides 1-86, 2 hexaethylene glycol linkers (HH) between 38 and 39 left out]

CGCUAGAUGGCUAACACUAUUGUGGAGAUGCACUAGCGCGCAUAGAUAAGCCAACAAACGUACAUUCUCUGUUAGUAUUUUCUGCG [AMSB103.1]
pKd [1, 4]: 10.59
pKd [2, 4]: 10.39

CGCAUAGAUAAGCCAACAAAUUCUCUGUUAGUAUUUUCUGCG [AMS0525.7]
pKd ([1]; one internal hexaethylene glycol linker (H) [2'-F at 1-42, hexaethylene glycol linker H (left out) between A20 and U21], PBSMCT, 37 C): 10.03

CGCUAGAUGGCUAACACUAUUGUGGAGAUGCACUAGCGCGCAUAGAUAAGCCAACAAACGUACAUUCUCUGUUAGUAUUUUCUGCG [AMSB103.5]
pKd [1, 5]: 10.57
pKd [2, 5]: 10.42

CGCUAGAUGGCUAACACUAUUGUGGAGAUGCACUAGCGCGCAUAGAUAAGCCAACAAACGUACAUUCUCUGUUAGUAUUUUCUGCG [AMSB103.3]
pKd [1, 6]: 10.51
pKd [2, 6]: 10.44

CGCUAGAUGGCUAACACUAUUGUGGAGAUGCACUAGCGCGCAUAGAUAAGCCAACAAACGUACAUUCUCUGUUAGUAUUUUCUGCG [AMSB103.4]
pKd [1, 7]: 10.49
pKd [2, 7]: 10.39

CGCUAGAUGGCUAACACUAUUGUGGAGAUGCACUAGCGCGCAUAGAUAAGCCAACAAACGUACAUUCUCUGUUAGUAUUUUCUGCG [AMSB103.6]
pKd [1, 8]: 10.47
pKd [2, 8]: 10.41

CGCUAGAUGGCUAACACUAUUGUGGAGAUGCACUAGCGCGCAUAGAUAAGCCAACAAACGUACAUUCUCUGUUAGUAUUUUCUGCG [AMSB103.2]
pKd [1, 9]: 10.47
pKd [2, 9]: 10.42

CGCAUAGAUAAGCCAACAAACAUUCUCUGUUAGUAUUUUCUGCG [AMS0525.8]
pKd ([1]; one internal hexaethylene glycol linker (H) [2'-F at 1-44, hexaethylene glycol linker H (left out) between C21 and A22], PBSMCT, 37 C): 10.07

CGCUAGAUGGCUAACACUAUUGUGGAGAUGCACUAGCGCGCAUAGAUAAGCCAACAAACGUACAUUCUCUGUUAGUAUUUUCUGCG [AMSB103]
pIC50 [3]: > 10.00
